Results on 9 molecules are retold here after US20240029824A1 (University of Washington, published 2024).

In experiment [1] the target is T1, DHT03 chain C (SEQ ID NO: 59).
T1 chain: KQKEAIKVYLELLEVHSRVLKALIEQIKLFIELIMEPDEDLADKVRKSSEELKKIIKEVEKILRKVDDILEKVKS
Put plainly: chains mixed and annealed, SEC, negative stain EM; A4B4C4 ring.

The target in experiment [2] is T2, DHT03_3arm_A21/B21/C82 chain C.
T2 construct: also called chain C DHR82 fusion; chain C of C3-DHT03-01-DHR82 and C4-DHT03-01-DHR82
T2 chain: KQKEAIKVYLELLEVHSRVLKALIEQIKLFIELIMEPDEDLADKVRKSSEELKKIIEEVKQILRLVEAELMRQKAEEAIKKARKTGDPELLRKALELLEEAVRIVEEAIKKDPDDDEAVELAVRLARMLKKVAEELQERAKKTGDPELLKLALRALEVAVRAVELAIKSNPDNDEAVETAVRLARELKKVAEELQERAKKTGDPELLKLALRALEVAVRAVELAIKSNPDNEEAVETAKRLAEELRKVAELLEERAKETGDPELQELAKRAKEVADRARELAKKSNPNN
Put plainly: three components purified separately, mixed equimolar, heat annealed, SEC, negative stain EM. From the text:
As is evident from the images in FIGS. 4c and 4d, the cyclic structures retain one of the original heterotrimer helical hairpins in each corner; these short, outward facing protein chains provide fusion points for further elaboration of higher order symmetric assemblies. To evaluate the potential for building up larger nanostructures using the rings as hubs, and explore the modularity of the designed building blocks, we replaced the original outward facing chain C helical hairpin with the chain C DHR82 fusion (as it was the largest 4-repeat DHR) from FIG. 3d, row 8. This was done for two designs (C3-DHT03-01 and C4-DHT03-01), with chain C replaced by fusion C82 through expressing and purifying the three components separately, mixing them in equal molar quantities, and reconstituting using heat annealing.
An AKTA PURE FPLC system was used. Heterotrimer bases, arm extensions, coiled coil C2 rings, and all constructs mentioned in SI were passed through a Cytvia Superdex S200 Increase 10/300 GL column, while C3/C4 rings made from DHT03 were passed through a Cytvia Superdex S6 Increase 10/300 GL column. The mobile phase was TBS (25 mM Tris-HCl pH 8.0, 100 mM NaCl or 25 mM Tris-HCl pH 8.0, 150 mM NaCl). Samples ran at a flow rate of 0.75 ml/min and fractions were collected at 0.5 ml.

The target in experiment [3] is T3, DHT01-4arm-01 chain C.
T3 construct: also called DHT01-4arm-02 chain C; C2-DHT01-01 chain B
T3 chain: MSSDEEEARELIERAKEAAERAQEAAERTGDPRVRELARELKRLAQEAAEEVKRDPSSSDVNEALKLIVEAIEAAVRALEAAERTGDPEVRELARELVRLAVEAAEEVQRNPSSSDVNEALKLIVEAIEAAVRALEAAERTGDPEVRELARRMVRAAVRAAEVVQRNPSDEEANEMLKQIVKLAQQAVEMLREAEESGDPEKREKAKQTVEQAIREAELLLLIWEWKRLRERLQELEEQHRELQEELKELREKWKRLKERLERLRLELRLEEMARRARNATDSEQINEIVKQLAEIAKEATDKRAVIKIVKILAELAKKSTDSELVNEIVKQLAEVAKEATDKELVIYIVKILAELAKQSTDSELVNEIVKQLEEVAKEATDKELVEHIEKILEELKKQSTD
Kind of experiment: bicistronic expression, SAXS, negative stain EM; A2B2 ring.

Experiment [4] concerns the target T1, DHT03 chain C (SEQ ID NO: 59). Kind of experiment: chains mixed and annealed, SEC, negative stain EM; A3B3C3 ring.
For experiment [5], the target named is T4, DHT05_3arm_A62/B71/C62 chain C.
T4 chain: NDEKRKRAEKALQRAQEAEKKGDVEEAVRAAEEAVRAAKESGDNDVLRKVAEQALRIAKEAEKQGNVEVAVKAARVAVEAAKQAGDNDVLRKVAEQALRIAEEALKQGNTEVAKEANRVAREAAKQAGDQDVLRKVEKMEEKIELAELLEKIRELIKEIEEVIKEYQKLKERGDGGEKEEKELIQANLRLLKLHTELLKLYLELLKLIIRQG
Kind of experiment: SEC and SAXS; chains of one ABC heterotrimer.

Experiment [6] concerns the target T1, DHT03 chain C (SEQ ID NO: 59). Put plainly: X-ray crystal structure, 3.35 A. The procedure: Purified DHT03_2arm_A21/B21/C (long) protein at a concentration of 41 mg/mL was used to conduct sitting drop, vapor-diffusion crystallization trials using the JCSG Core I-IV screens (NeXtal Biotechnologies). Crystals of DHT03_2arm_A21/B21/C long grew from drops consisting of 100 nL protein plus 100 nL of a reservoir solution consisting of 2M (NH4)2SO4, 0.1M sodium acetate pH4.6 at 18° C., and were cryoprotected by supplementing the reservoir solution with 2.2M sodium malonate pH5. Native diffraction data was collected at APS beamline APS-23-ID-B, indexed to P1 and reduced using XDS⁴⁸. The structure was phased by molecular replacement using Phaser™. The chain A of a set of ˜49 lowest energy predicted models from Rosetta™ were used as search models. Several of these models gave clear solutions. Chain B and Chain C were fitted manually in Coot™ and rigid body refinement by Phenix™. The following model building and refinement were done by Coot™ and Phenix™.

B1: C4-DHT03-02 chain B (designed binder)
chain: MGTTNFHLINGSEEARQIIEKIVEEVARKAGTEVHFEKSDGTLEIRVKNLHEELERRIKKAIEAALAAQIAKKLAEQIERQLSNTELAKEAKKLATEAEKARDSEAVQVVLLALEIVQQLPDTELAKEALELAEEAVKSTDSEALKVVKLALEIVQQLPDTELAREALELAKEAVKSTDSEALKVVYLALRIVQQLPDTELARLALELAKKAVEMTAQEVLEIARAALKAAQAFPNTELAELMLRLAEVAARVMKELERNDEEIKKSDELDDESLLEDIVELLKEIIKLWKILVEVSDVMLKLIS
notes: four copies in the A4B4C4 ring
Consider B1, for which, in experiment [1], the binding result is reported as “binds”.

B2: C4-DHT03-01 chain B (designed binder)
chain: MGTTNFHLINGSEEARQLIQKAVEAISKKEGTEVHFEKSDGTLEIRVKNLHPRQEDLIKKFIEALLLALVAKGELEQAEKEGDAEVALRAVEKVVRVAELLLRLAKEAGSEEALKAALEIAEQAARLAARVFTLAVKQNDSDVAKRAVELIKRVAELLKRIAKESGSEEAKERAEKVEKAAEVAEIAARILDQLSNTELAKEALKLASEALKSDIKEALEVVRLALRIVQQLPDTELAREALELAKEAVKSTDSEQLEVVRLALEIVQLAPDTRLARAALKLAKEAVKSTDQEELKKVKAILRVASEVLKLEEEAKKSQEEVERLKQEVEKASKAGLDHEGDSRIFKKIHDVVTKQIKVILRLIAVYAELVAIIG
notes: four copies in the A4B4C4 ring; also called C4-DHT03-01-DHR82 chain B
Consider B2, for which the binding result in experiment [1] and in experiment [2] was “binds” throughout.

B3: C2-DHT01-03 chain A (designed binder)
chain: MGDEEEKLRESLEEQKKRVKEIEREHEEIREALKRLQQSVLRQAVRLAKLGDDSRMIASIIRDLVKQALRATDEREQKKIKKALEELAQNATDEALKLLIEAAKSLLRAAEASERGDEEEFRKAAEKALELAKRLVEIAKKQSLPEFVLAAAEIALAVAELAAKNNDSEVLEKALRSAAEVAQRLLEVAEKENNQELVEEAAKILKRALEIVEKAAKKLKERNDQSSDVNRALTLIRRAQEAADQLLEHARKSGDPEVWELAIRLVARLVEAAAKVAANMSDEQQNTQLRRLIAKAEVWLLNEEFKEAEKRFRKLQEETKKALEEVEELNQRFEEALEEVERIKRRQKGGSGWSHPQFEK
notes: two copies in the A2B2 ring
On to B3, for which the binding result in experiment [3] is “binds”.

B4: C3-DHT03-02 chain B (designed binder)
chain: TWQWVLINISEEARQLIEKAVRAISKKEGTEVHFEKDDGVLHIRVKNLHEKRAREIHKVAKLILEVAAAERIVRERPGSNLAKKALEIILRAAEELAKADVDAALEAAVRAAEKVVREQPGSNLAKKALEIILRAAEELAKLPDPEALKEAVKAAEKVVREQPNSELAKKAREIIKRAAEELAKSPDKEAIQEAATALAILIELILSNTELAREAKELATEARKATDSEAAKVVFLALFIVVQLPDTELAKEALELAKEAVKSTDSEALKVVELALEIVQQLPDTELAKEALKLAKEAVKSTDSEALKVVYLALRIVQQLPDTELAREALELAKEAVKSTDSEQLEVVRLALEIVQLAPDTRLARAALKLAKEAVKSTDQEELKKVKAILRVASEVLKLEEEAKKSQEEVERLKQEVEKASKAGLDHEGDSRIFKKIHDVVTKQIKVILRLIAVYAELVAIIG
notes: three copies in the A3B3C3 ring
For B4, the binding result in experiment [4] is given as “binds”.

B5: C3-DHT03-01 chain B (designed binder)
chain: NTHFIVVHGGEEARQLAETAVREISKKEGTEVRFEKKDGLLSIEVKNLSEELQRLIQELLQLLVRLAALLEAVRAVEEAIKRNPDNDEAVETAVRLARELKKVAELLQELAKKAGVPAILRGALLALEVAVRAVELAIKSNPDNDEAVETAVRLAVVKLALEIVQQLPDTELAREALELAKEAVKSTDSEALKVVYLALRIVQQLPDTELARLALELAKKAVEMTAQEVLEIARAALKAAQAFPNTELAELMLRLAEVAARVMKELERNDEEIKKSDELDDESLLEDIVELLKEIIKLWKILVEVSDVMLKLIS
notes: three copies in the A3B3C3 ring; also called C3-DHT03-01-DHR82 chain B
Take B5: the binding result in experiment [4] and in experiment [2] was “binds” each time.

B6: DHT05_3arm_A62/B71/C62 chain B (designed binder)
chain: SEVEKRLLEIHRQVAESHRILVEVHEALIEALRGNSEEAKEKLKELVKKLEKIIRQEELLLQLLEALVKALQAKKEGDPELVLEAAKDALRVAEQAAKEGDKEMFKQAAELALWLAKQLVEVASKEGDPELVLEAAKVALRVAELAAKNGDKEVFKKAAESALEVAKRLVEVASKEGDPELVEEAAKVAEEVRKLAKKQGDEEVYEKARETAREVKEELKRVREEK
With B6, the binding result in experiment [5] is “binds”.

B7: C2-DHT01-02 chain B (designed binder)
chain: DEEEKLRESLEEQKKRVKEIEREHEEIREALKRLQQSVLRQAVRLAKLGDDSEMIQRIVEDLARQAMEATDDREVEKIEKALDELAKNSTDEELKKVIKVAKTLVRVAKLVKEAEELLRQAKEKGSEEDLEKALRTAEEAAREAKKVLEEAEKAQIAEAALLAVELVVRVAELLLRIAKESGSEEALERALRVAEEAARLAKRVLELAEKQGDPEVALRAVELVVRVAELLLRIAKESGSSEALTRAWRVAIEAFQLAVRVLKLAQKQNDSEVARRATELMKRVAELMERIARESGSSAFKAAAEALEAAARTNDKEVVDLARELARLAIEALEEVERNSKSSDVNRALKLILRAIKAAVQLLEHAEKSGDPEVRELARELVRRLVEAAEEVQRNPSDEQKNTQLRRLIAKAEVWLLNEEFKEAEKRFRKLQEETKKALEEVEELNQRFEEALEEVERIKRRQK
notes: two copies in the A2B2 ring
In the case of B7, in experiment [3], the binding result is recorded as “binds”.

B8: C2-DHT01-01 chain A (designed binder)
chain: DEEEKLRESLEEQKKRVKEIEREHEEIREALKRLQQSVLRQAVRLAKLGDDSEMIRRIVKDLMQQAIEATDEREVEKIKKAAEELSKNSTDEDLKKQIKAVQELVKAVETVREAKKQGDPKKVLKAAEIAMEVATWAAERNDEMIFKLAAKMAKEVAERLKEVAKKENDSALELAAEAIKAAVEALEAALRTGDPRVRELAKELVRLAKEAAEEATRDSKDSDKNEALKLIVEAIKAAVRALEAAERTGDPEVRELARELVRLAVEAAEEVLRNPSSSDVNRALKLIVRAIEAAVQLLEHAEKSGDPEVRELARELVRRLVEAAEEVQRNPSDEQKNTQLRRLIAKAEVWLLNEEFKEAEKRFRKLQEETKKALEEVEELNQRFEEALEEVERIKRRQK
notes: two copies in the A2B2 ring; ring designs kept a C-terminal His-tag in frame
On to B8, for which, in experiment [3], the binding result is “binds”.

B9: DHT03_2arm_A21/B21/C long chain B (designed binder)
chain: SEKEKVEELAQRIREQLPDTELAREAQELADEARKSDDSEALKVVYLALRIVQQLPDTELAREALELAKEAVKSTDSEALKVVELALKIVQQLPDTELAKEALELAKEAVKSTDSEALKVVELALEIVQQLPDTELAKEALKLAKEAVKSTDSEALKVVYLALRIVQQLPDTELAREALELAKEAVKSTDSEQLEVVRLALEIVQLAPDTRLARAALKLAKEAVKSTDQEELKKVKAILRVASEVLKLEEEAKKSQEEVERLKQEVEKASKAGLDHEGDSRIFKKIHDVVTKQIKVILRLIAVYAELVAIIG
B9: in experiment [6], the binding result is “binds”.
